From PMC8004701, “An Arabidopsis Oxalyl-CoA Decarboxylase, AtOXC, Is Important for Oxalate Catabolism in Plants” (International Journal of Molecular Sciences, 2021)

Biological target: the molecule itself
Test: SEC; Superdex 200 Increase 10/300 GL, 100 mM sodium phosphate pH 7.5, 100 mM NaCl, 10 mM beta-mercaptoethanol; standards aldolase (158 kDa) and conalbumin (75 kDa); AtOXC eluted at 13.0 mL

B1: Arabidopsis oxalyl-CoA decarboxylase (AtOXC), His-tagged (enzyme, Arabidopsis thaliana, UniProt Q9LF46 1-572, looked up)
chain: MADKSETTPPSIDGNVLVAKSLSHLGVTHMFGVVGIPVTSLASRAMALGIRFIAFHNEQSAGYAASAYGYLTGKPGILLTVSGPGCVHGLAGLSNAWVNTWPMVMISGSCDQRDVGRGDFQELDQIEAVKAFSKLSEKAKDVREIPDCVSRVLDRAVSGRPGGCYLDIPTDVLRQKISESEADKLVDEVERSRKEEPIRGSLRSEIESAVSLLRKAERPLIVFGKGAAYSRAEDELKKLVEITGIPFLPTPMGKGLLPDTHEFSATAARSLAIGKCDVALVVGARLNWLLHFGESPKWDKDVKFILVDVSEEEIELRKPHLGIVGDAKTVIGLLNREIKDDPFCLGKSNSWVESISKKAKENGEKMEIQLAKDVVPFNFLTPMRIIRDAILAVEGPSPVVVSEGANTMDVGRSVLVQKEPRTRLDAGTWGTMGVGLGYCIAAAVASPDRLVVAVEGDSGFGFSAMEVETLVRYNLAVVIIVFNNGGVYGGDRRGPEEISGPHKEDPAPTSFVPNAGYHKLIEAFGGKGYIVETPDELKSALAESFAARKPAVVNVIIDPFAGAESGRLQHKN
notes: Oxalyl-CoA decarboxylase AtOXC, Arabidopsis thaliana, locus At5g17380; full-length cDNA; monomer about 61.5 kDa; No removal of the tag is reported; also called His-AtOXC; His-tagged AtOXC; source: E. coli BLR (DE3), purified (nickel-nitriloacetic acid agarose, desalted on Sephadex G-25)
With B1 the “stoichiometry N” value was 2.
